Molecular target: gelatin

B1: recombinant stem bromelain (protein)
chain: SRDEPNDPMMKRFEEWMAEYGRVYKDDDEKMRRFQIFKNNVKHIETFNSRNENSYTLGINQFTDMTKSEFVAQYTGVSLPLNIEREPVVSFDDVNISAVPQSIDWRDYGAVNEVKNQNPCGSCWSFAAIATVEGIYKIKTGYLVSLSEQEVLDCAVSYGCKGGWVNKAYDFIISNNGVTTEENYPYLAYQGTCNANSFPNSAYITGYSYVRRNDERSMMYAVSNQPIAALIDASENFQYYNGGVFSGPCGTSLNHAITIIGYGQDSSGTKYWIVRNSWGSSWGEGGYVRMARGVSSSSGVCGIAMAPLFPTLQSGANAEVIKMVSET
Diameter of halo zones (mm), Average: 9 mm | Diameter of halo zones (mm), Plate 1: 8 mm | Diameter of halo zones (mm), Plate 2: 10 mm | Diameter of halo zones (mm), Plate 3: 9 mm

Source: patent publication US20110151541
